The chains are these.
B1: INTS3 (parent)
chain: FSDDEEDLNSKGKKREFRFHPIKE
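Also: lentivirally expressed fusions sorted by FACS into six bins by GFP to DsRed ratio, PSI derived from sequencing read proportions per bin multiplied by bin number.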

The variants in this data set derive from B1. Kind of data set: protein stability index of a GFP-peptide fusion (GPS, HEK-293T) (PSI 1-6); higher = more stable. As to conditions: c terminus: a fixed tail appended.
With FSDDEEDLNSKCKKREFRFHPIKE, the protein stability index stood at 2.13.
On to FSDDEEDLNSKLKKREFRFHPIKE, for which the protein stability index was determined as 2.29.
As to FSDDEEDLNSKIKKREFRFHPIKE, the protein stability index is 2.14.
For FSDDEEDLNSKQKKREFRFHPIKE, the protein stability index turned out to be 3.2.
Regarding FSDDEEDLNSKKKKREFRFHPIKE, the protein stability index is 1.98.
Take FSDDEEDLNSKMKKREFRFHPIKE: the protein stability index was 2.58.
As for FSDDEEDLNSKHKKREFRFHPIKE, the protein stability index is 2.58.
Consider FSDDEEDLNSKSKKREFRFHPIKE, for which the protein stability index worked out at 2.65.
As for FSDDEEDLNSKFKKREFRFHPIKE, the protein stability index was determined as 1.91.
Consider FSDDEEDLNSKVKKREFRFHPIKE, for which the protein stability index came to 2.1.
Regarding FSDDEEDLNSKNKKREFRFHPIKE, the protein stability index is 2.83.
The value for FSDDEEDLNSKYKKREFRFHPIKE was 2.4; that for FSDDEEDLNSKAKKREFRFHPIKE was 2.67.
For FSDDEEDLNSKTKKREFRFHPIKE, the protein stability index is 2.44.
FSDDEEDLNSKRKKREFRFHPIKE: the protein stability index was 2.14.
For the variant FSDDEEDLNSKEKKREFRFHPIKE, the protein stability index was 3.02.
With FSDDEEDLNSKWKKREFRFHPIKE, the protein stability index worked out at 2.11.
For the variant FSDDEEDLNSKDKKREFRFHPIKE, the protein stability index came out at 2.92.
In the case of FSDDEEDLNSKPKKREFRFHPIKE, the protein stability index came to 2.98.
On to FSYDEEDLNSKGKKREFRFHPIKE, for which the protein stability index was found to be 2.32.
Take FSSDEEDLNSKGKKREFRFHPIKE: the protein stability index amounted to 2.55.
For the variant FSWDEEDLNSKGKKREFRFHPIKE, the protein stability index was 2.45.
Regarding FSVDEEDLNSKGKKREFRFHPIKE, the protein stability index was 2.61.
To FSRDEEDLNSKGKKREFRFHPIKE belongs 2.19; to FSTDEEDLNSKGKKREFRFHPIKE, 2.9; to FSDDEEDLDSKGKKREFRFHPIKE, 3.79.
As to FSDDEEDLHSKGKKREFRFHPIKE, the protein stability index came out at 2.77.
Consider FSDDEEDLWSKGKKREFRFHPIKE, for which the protein stability index came to 2.12.
In the case of FSDDEEDLYSKGKKREFRFHPIKE, the protein stability index stood at 2.29.
To FSDDEEDLESKGKKREFRFHPIKE belongs 3.6; to FSDDEEDLSSKGKKREFRFHPIKE, 2.98; to FSDDEEDLCSKGKKREFRFHPIKE, 2.67.
With FSDDEEDLQSKGKKREFRFHPIKE, the protein stability index is 2.68.
For FSDDEEDLLSKGKKREFRFHPIKE, the protein stability index turned out to be 2.99.
For the variant FSDDEEDLTSKGKKREFRFHPIKE, the protein stability index was 3.36.
FSDDEEDLPSKGKKREFRFHPIKE: the protein stability index is 2.61.
On to FSDDEEDLFSKGKKREFRFHPIKE, for which the protein stability index was 2.31.
Take FSDDEEDLISKGKKREFRFHPIKE: the protein stability index amounted to 2.06.
In the case of FSDDEEDLGSKGKKREFRFHPIKE, the protein stability index is 2.82.
For the variant FSDDEEDLVSKGKKREFRFHPIKE, the protein stability index was 3.83.
The value for FSDDEEDLMSKGKKREFRFHPIKE was 2.66; that for FSDDEEDLASKGKKREFRFHPIKE was 3.15; that for FSDDEEDLRSKGKKREFRFHPIKE was 2.76.
As for FSDDEEDLKSKGKKREFRFHPIKE, the protein stability index is 2.21.
The value for FSDDCEDLNSKGKKREFRFHPIKE was 2.49; that for FSDDMEDLNSKGKKREFRFHPIKE was 2.61; that for FSDDTEDLNSKGKKREFRFHPIKE was 2.68.
The value for FSDDWEDLNSKGKKREFRFHPIKE was 1.88; that for FSDDGEDLNSKGKKREFRFHPIKE was 2.44.
As to FSDDYEDLNSKGKKREFRFHPIKE, the protein stability index was 2.29.
As to FSDDQEDLNSKGKKREFRFHPIKE, the protein stability index came out at 2.3.
In the case of FSDDAEDLNSKGKKREFRFHPIKE, the protein stability index is 2.81.
As for FSDDHEDLNSKGKKREFRFHPIKE, the protein stability index amounted to 2.18.
To FSDDNEDLNSKGKKREFRFHPIKE belongs 2.39.
FSDDREDLNSKGKKREFRFHPIKE: the protein stability index was found to be 2.
To FSDDIEDLNSKGKKREFRFHPIKE belongs 2.81; to FSDDVEDLNSKGKKREFRFHPIKE, 2.9; to FSDDPEDLNSKGKKREFRFHPIKE, 2.48.
The value for FSDDLEDLNSKGKKREFRFHPIKE was 2.55; that for FSDDDEDLNSKGKKREFRFHPIKE was 2.68.
As to FSDDKEDLNSKGKKREFRFHPIKE, the protein stability index is 2.17.
As to FSDDFEDLNSKGKKREFRFHPIKE, the protein stability index came to 2.41.
For FSDDSEDLNSKGKKREFRFHPIKE, the protein stability index was determined as 2.1.
For FSDDEEDLNSKGDKREFRFHPIKE, the protein stability index was 3.4.
To FSDDEEDLNSKGHKREFRFHPIKE belongs 2.31; to FSDDEEDLNSKGFKREFRFHPIKE, 2.44; to FSDDEEDLNSKGLKREFRFHPIKE, 3.54.
On to FSDDEEDLNSKGCKREFRFHPIKE, for which the protein stability index was 2.89.
For FSDDEEDLNSKGIKREFRFHPIKE, the protein stability index was determined as 2.31.
For FSDDEEDLNSKGGKREFRFHPIKE, the protein stability index amounted to 3.42.
In the case of FSDDEEDLNSKGAKREFRFHPIKE, the protein stability index was determined as 3.41.
Turning to FSDDEEDLNSKGNKREFRFHPIKE, the protein stability index came to 3.2.
The value for FSDDEEDLNSKGEKREFRFHPIKE was 3.6.
With FSDDEEDLNSKGMKREFRFHPIKE, the protein stability index turned out to be 3.23.
Regarding FSDDECDLNSKGKKREFRFHPIKE, the protein stability index was 2.62.
As to FSDDEWDLNSKGKKREFRFHPIKE, the protein stability index stood at 2.32.
In the case of FSDDEKDLNSKGKKREFRFHPIKE, the protein stability index is 2.61.
To FSDDEGDLNSKGKKREFRFHPIKE belongs 2.7; to FSDDERDLNSKGKKREFRFHPIKE, 2.07; to FSDDELDLNSKGKKREFRFHPIKE, 2.69.
For the variant FSDDEMDLNSKGKKREFRFHPIKE, the protein stability index was 2.18.
To FSDDETDLNSKGKKREFRFHPIKE belongs 3.08; to FSDDENDLNSKGKKREFRFHPIKE, 2.1.
Take FSDDEQDLNSKGKKREFRFHPIKE: the protein stability index came to 2.29.
As to FSDDESDLNSKGKKREFRFHPIKE, the protein stability index stood at 2.15.
For FSDDEPDLNSKGKKREFRFHPIKE, the protein stability index was determined as 2.36.
As for FSDDEFDLNSKGKKREFRFHPIKE, the protein stability index was determined as 2.13.
The value for FSDDEVDLNSKGKKREFRFHPIKE was 2.27.
For FSDDEHDLNSKGKKREFRFHPIKE, the protein stability index is 2.29.
To FSDDEADLNSKGKKREFRFHPIKE belongs 2.6.
Take FSDDEIDLNSKGKKREFRFHPIKE: the protein stability index turned out to be 2.27.
Regarding FSDDEDDLNSKGKKREFRFHPIKE, the protein stability index turned out to be 2.8.
As to FSDDEYDLNSKGKKREFRFHPIKE, the protein stability index amounted to 2.24.
As for FSDHEEDLNSKGKKREFRFHPIKE, the protein stability index came out at 2.95.
